Test results as given in patent US20100293752, “DEVICE FOR DECELERATING THE ROTATION OF A HINGE IN PARTICULAR FOR FURNITURE AND A HINGE PARTICULARLY FOR FURNITURE HAVING SAID DECELERATION DEVICE” (published 2010).

Target: osteopontin (OPN) (Homo sapiens, UniProt P10451 P10451:17-314)
Assay: filter; double-filter nitrocellulose, selection buffer, 37 C; OPN species not specified for this assay
Details: label: 5'-32P; stem-loop (predicted, mFold)
Experimental: The RNA-protein equilibrium dissociation constant (Kd) of OPN-R3 was characterized using the double-filter nitrocellulose filter binding method (Gopinath, Anal. Bioanal. Chem. 387:171 (2007)). For all binding assays, RNAs were dephosphorylated using bacterial alkaline phosphatase (Invitrogen, Carlsbad, Calif.) and 5′-end labeled using T4 polynucleotide kinase (New England Biolabs, Beverly, Mass.) and γ-³²P-ATP (MP Biomedicals, Solon, Ohio). Direct binding assays were carried out by incubating ³²P-labeled RNA at a concentration of less than 0.1 nM and target protein at concentrations ranging from 300 nM to 10 μM in selection buffer at 37° C. The fraction of RNA bound was quantified with a PhosphorImager (Molecular Dynamics, Sunnyvale, Calif.). Raw binding data were corrected for nonspecific background binding of radiolabeled RNA to the nitrocellulose filter.

Sequence of osteopontin (OPN) (P10451 17-314, one chain of several): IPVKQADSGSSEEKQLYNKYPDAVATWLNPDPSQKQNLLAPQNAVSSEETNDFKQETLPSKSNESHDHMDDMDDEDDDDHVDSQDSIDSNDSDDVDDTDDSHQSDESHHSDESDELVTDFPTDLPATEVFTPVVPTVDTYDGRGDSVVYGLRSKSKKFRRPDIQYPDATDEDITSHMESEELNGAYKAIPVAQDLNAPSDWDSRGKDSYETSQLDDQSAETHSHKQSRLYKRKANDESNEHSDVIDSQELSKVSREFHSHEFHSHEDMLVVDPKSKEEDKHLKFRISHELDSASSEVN

CGGCCACAGAAUGAAAAACCUCAUCGAUGUUGCAUAGUUG (ssRNA, 2'-F on all C and U) [OPN-R3 32P-labelled] was tested, and the Kd was 18 nM.
